Assay results reported in the DeepSol protein solubility set.

assay: soluble on expression in E. coli; label from the status in PepcDB or PDB records

Sequence | soluble on expression in E. coli
MKNEKIVVLYGGDSPEREVSLKSGKAVLDSLISQGYDAVGVDASGKELVAKLLELKPDKCFVALHGEDGENGRVSALLEMLEIKHTSSSMKSSVITMDKMISKEILMHHRMPTPMAKFLTDKLVAEDEISFPVAVKPSSGGSSIATFKVKSIQELKHAYEEASKYGEVMIEQWVTGKEITVAIVNDEVYSSVWIEPQNEFYDYESKYSGKSIYHSPSGLCEQKELEVRQLAKKAYDLLGCSGHARVDFIYDDRGNFYIMEINSSPGMTDNSLSPKSAAAEGVDFDSFVKRIIEQAQ | not soluble
MDKFKYAFDNKRYHTWNYYLRNTFGEKVFKVSINAGFTCPNIDGSLGYGGCTYCSKEGSGDFAGNPKDNLISQFYNIKEMMLKKWPHAKYIGYFQAYTNTYAPLEVLKEKYETILELEDVIGLSISTRPDCLPDDIVEYLSELNKRTNLWVELGLQTIHDSTSKIINRGHDYKTFVEGVEKLKSKNIKVVVHIINGLPGEDYNMMMETAKAVGKMGVDGIKIHLLHVIKDTPMEKMLQNGMLTLMEQDEYINLVCDQLEILPETMIIHRLTGDGKRDELVGPIWSLKKWEILNKIDDTLKARNSYQGCKFV | soluble
MGSDKIHHHHHHMNIAEIEVTHKVKEKEWKEFLSRSEYATVYHTPEWKKTLEESFGYKPYYLFVKDESDLIVGMLPLFYVKSKLTGNRLSSLPFSHISGPVGDKATKNFLISEAINLYKNLGASYLEIRDRVEDNRFLSKNMFSTYILELNPNIEEVWKQLHKGSVRRAIKKSEKSGVVVDTAKDIESLKEFYDLNCVGKRKIGVPCHPWKFFKNLFRFMNDYISLYVAKYQNNIIGGGIMIYYKDTVIYGYGAAHPHYLKLYPYNAFLWKSIKDACLSRYKYFDLGRAHYNVERGLMDFKRRWGTIEKKLYYSYYSKNKDLKILDMSGLKYRLGTKVIRKMPMPIYKKFSDRIFGSLG | not soluble
MGSDKIHHHHHHMMEYWIRRALEVVKTPFLLFDLSVVEKKYLEMKAALKKADIYYAVKANSHPRIISLLARLGSNFDVASKGEIEKLLALGVDGKRMSFGNTIKREEDIAFAYKNGIRLFAVDSEMEVEKVAINAPGSFVFVRVETDGADADWPLSRKFGTNPEHALQLLSYASKMKLIPAGLSFHVGSQNLNPESWKKAIEIAGRVFKKAMRSGLNLFLLNVGGGFPVQHTKPIPSMEEIGKAIEEAIDENLWFVHNLKVIAEPGRYMVGEAGWLVTKVLLKSERSGEKWVYIDAGVFHGLAETIQNFEYEIRVLGKEREELEEYHLAGPTCDSVDVIYDRIFLPKSITLNDLVCFINAGAYTVEYNTRFNGIEPPKMVFIEELTEISIEEKIKTRVLD | not soluble
MDYRVIKENDVFLLTDQDGNIPEHHPYGLGLYTKDTRFLSKWSLRINGEEPVLLASDAAQNYVATILLTNPHIERDGELILWRESVEIERKRFIYAGVLYETIKLKNYHPKPVQLEISVHMDADFADMFIVRGFQTGEVGKRTGQTIGKRSLTFHYEGADGVERATKVSWDREEKTVKEHGEIVFDFALDRAEEQTVTLMVEPITGKTGRVEVIPPEQALQRLQESYQRWEGETANVITDERQFERLVRRGIGDLRVLLTDLGCGPFPVAGLPWFGVPFGRDSLIAALQLLPFNHEIAKGTLLTMARYQGTKVDPWRDEQPGKIMHEIRFGELANTNQIPFTPYYGTIDATPLFLVLLVEYVKWTGNFDLVRQLRSNIDAALHWIDRYGDRDGDLFVEYFQESSKGIANQGWKDSGDSIVHENGEYARAPIALVEVQGYVYHAKMGLADIFEQLQEVEKAEALRTQAEALKKRFEEQFWMEDRKFYALALDENKAPVRTITSNPGHVLFSGMLEGRRADAVIDTLLSEKMFSGYGIRTMGEGEAGYNPMSYHNGSIWPHDNSLILLGLSKLGRRREAKTVIEGLMEASMHFEYDRLPELFCGYSRSEGKPVRYPVACSPQAWAAGTPLVFVQALLGLFPNALEKNIYLSPTLLDSMNMLRVENILIGGGRLSLTVTREQDNFHVQIDENTTGWDIVLR | not soluble
GLKEHDFNPEEAEETKQVSWKLVTEYAMETKCDDVLLLLGMYLEFQYSFEMCLKCIKKEQPSHYKYHEKHYANAAIFADSKNQKTICQQAVDTVLAKKRVDSLQLTREQMLTNRFNDLLDRMDIMFGSTGSADIEEWMAGVAWLHCLLPKMDSVVYDFLKCMVYNIPKKRYWLFKGPIDSGKTTLAAALLELCGGKALNVNLPLDRLNFELGVAIDQFLVVFEDVKGTGGESRDLPSGQGINNLDNLRDYLDGSVKVNLEKKHLNKRTQIFPPGIVTMNEYSVPKTLQARFVKQIDFRPKDYLKHCLERSEFLLEKRIIQSGIALLLMLIWYRPVAEFAQSIQSRIVEWKERLDKEFSLSVYQKMKFNVAMGIGVLD | soluble
MFDPKKLEQIAKQIHDSMPAPVKELGADVDQKVRQVIQGQLNKLDVVSREEFDVQTQVLLRTRQKLTEMEKKLSELEEKLADK | not soluble
GPGSMPPPAPPALEKKTAAGVEVDLTKMVLDTSSFLRASAQRPSMRYPSRASVSNSAFISAQEYDDLRARYSQAKRELLKVSDIQKDLDFARFELTRSQEEMKLLRASNHNLKNEVEEYVQRAEKEHKARMSLEAKMSAEGATRTEEIEFLKKTIDELRAENAKRLDYMTQQQEDEFQARLQSMREELAGAAEELARLTAEAAQAQKARELSESKLTAALTDLEKSRAVVDDCKARIDALQKECHALEQQHRDFVQQQERQNAAYLEEQKALNEERVHQVAESKNAAIAEMQEELHLWKEKTKTTAEELAAARHAASQLQDDVKQLTADRAKEVRRLAEEHRLALCELQLQMEAAIREARGSKTSLEEEAQSLRRQLAQVSTELSTVAGVLAQRERQLAKAEEELLRTKDRCVAAEQENAQLASDAQLNAEAADEAAARVERLMRQNSDMEEEFSKDLREAKDRIRTLEATLMQSKGELSALRKEQIKSADDGLAATRDLRAQAEALMEECTALKAQAGERRRLEEMARDYCQRFEAERTKVGTLEAELSAAVGRCTAVEAKLEELSRRVISQAVSRSPMQTLHPNATAASLSCHGKHRSVSSGQSYAPTGGSSMKRARTEDARVFAISGFDGNDVLLAVKQLPNVAIAECKSNMPVPSNLTHLITNGQLTIKLLTALVRGCWVLPESYVVDSLKEQTWLREEDYGFQHEEPPLLKKRIALTEAFMACKHYSTASLLLKEGGAILVDDPEQADILLCTNAEARSTQNGWNWEKMVEIIYPLKIQ | soluble
SDPAGASVASAIGGEGEKFAVGNIYSVKVITGDEFRGIVMAYDPIPNFVFFEEGTKPRPGHLKNTRMVNASFITGLSYLGKTEDPFDSDNFSVDLNGLRAKEALAIRQAEADAERMGVGVTAEAQSIFDALSKTLPVQWENSDILVMKEVRVRSPYLSDCVFGGTDAANNRVKKVLELERRRLQLFGT | soluble
GHMAKHQIGVIGLAVMGKNLALNIESKGYSVAVYNRLREKTDEFLQEAKGKNIVGTYSIEEFVNALEKPRKILLMVKAGAPTDATIEQLKPHLEKGDIVIDGGNTYFKDTQRRNKELAELGIHFIGTGVSGGEEGALKGPSIMPGGQKEAHELVRPIFEAIAAKVDGEPCTTYIGPDGAGHYVKMVHNGIEYGDMQLIAEAYFLLKHVLGMDAAELHEVFADWNKGELNSYLIEITADIFTKIDEETGKPLVDVILDKAGQKGTGKWTSQNALDLGVPLPIITESVFARFLSAMKDERVKASKVLAGPAVKPFEGDRAHFIEAVRRALYMSKICSYAQGFAQMKAASEEYNWNLRYGDIAMIFRGGCIIRAQFLQKIKEAYDRDPALSNLLLDSYFKDIVERYQDALREIVATAAMRGIPVPGSASALAYYDSYRTAVLPANLIQAQRDYFGAHTYERVDKEGIFHTEWLK | soluble
MGHHHHHHGGHMSLKNYFLQRRTLMTEQLPNCPECGSAYAYEDRGLFICPECGHEWSPTEEVAEEGLVVKDSNGNLLADGDSVTVIKDLKVKGASGAIKQGTKVKNIRLVEGDHNIDCKVDGFGPMKLKSEFVKKNEGGS | soluble
VTLLVKSPNQRHRDLELSGDRGWSVGHLKAHLSRVYPERPRPEDQRLIYSGKLLLDHQCLRDLLPKQEKRHVLHLVCNVK | soluble
MADVADPEVESRPQRFPKNIMITGANRGIGFGLVKHFLEYDGIELLIATCRNPEKADELNALKNDRRLHVIALNVDDDESIKKVFDEVSSLVSSNGLNMLINNAGILLPYEVDGPKICRKTMMKQLETNSVSVAILTQIFLPLIKTAASAAEGDEASIDRASIINISSTMASIEMNNGCFDGPMTAYRMSKSALNAFARQSFMELSKYHILVTSFCPGWVRTDMGGDNADLDVNESTKTLSANILRLDNRNNGLYFDRFLHPIPN | not soluble
MGSDKIHHHHHHMNPQTRKRQNLTAVYAALLQLMSQKPLSRISITELCQHAQVSRTYFYRNFANFDQIILAYQKQTILQYLRQLPRQSKVKLQVLMTQYFTLMQQMAATNALLIKNEKTQIFIQSFEAVFALLIKQDRIIGSSNTALRQPYYTAYFSGAVINMLVHWQQNGMVETPAYLAQQVTRFTLRDNESRS | not soluble
MGSDKIHHHHHHNFDDLLQLLEIHSRVFDVTPPSTGTVGSMRYLEYNGHVLANVEDLYILDNNKLPSPGVPVETLKLFGVDYIQTGDGVKIITCRVNSIEEIGKTVVVNFEGEKNFDVEQTQNSVRIIAKDWLLFRGVVKMPEEVLYEKENVRIERTAESDGQFRILLSAESVGKYVVKPFGERVDPYEKDVVFLVGYGDGRIIVRSFSKDLNGLDLPAYSESLKLARKIANELGYKLEECPVYDIPVGVIGMIVLLKGKDEMPVFLNTVERLMAE | not soluble
MGSDKIHHHHHHMSQAFLASENEQIKDYYEENGYVVVKNAVSLEKITDFINKYENFKISKNYYFRSQDTNRAEKLAINEKGFIERSILNPLELVYQKDFCRSSSNIICADSVSQILRTLTGKQKHTIWQTMFFDKSTGTVAHQDHYYLDSDPPGNLIACWYALEDIQEDAGAFFVVPKSHKGSVIPRKTDVPLFSDHEEYAKNIQKLINEQSYPIQPMLLEKGSVLFWHPYLIHGAFQNTNPKYSRKSFTAHFLPEGYSRLGISRVKPTVISTNPNILSWKKNLLHHAEASIRHWRYWLQVNLRPKSQRPYLEMRSSEYLDIK | not soluble
DQVSSLSSKYAVRLYEIIISWRAAGKTPMFSTMELRERLGMMPDEYQKMELFKRKVLDFAVKQINDKTDISITYEQHKEGRKIVGFTFSILHKIGSKDIPLENQSELFAGMTDLEAGTIRVRAEAYIASLIAKGQNVTKAHRLNILKKAVEERWGFEDVAKDNGAKNPENKNAKVVLNEWEKISNGTRFKDKDGTIWVKDSGMLRTEGTNRWIADSQIAKLFPMLTVMVEEGI | not soluble
GAAAAMSICPHIQQVFQNEKSKDGVLKTCNAARYILNHSVPKEKFLNTMKCGTCHEINSGATFMCLQCGFCGCWNHSHFLSHSKQIGHIFGINSNNGLLFCFKCEDYIGNIDLINDAILAKYWDDVCTKTMVPSMERRDGLSGLINMGSTCFMSSILQCLIHNPYFIRHSMSQIHSNNCKVRSPDKCFSCALDKIVHELYGALNTKQASSSSTSTNRQTGFIYLLTCAWKINQNLAGYSQQDAHEFWQFIINQIHQSYVLDLPNAKEVSRANNKQCECIVHTVFEGSLESSIVCPGCQNNSKTTIDPFLDLSLDIKDKKKLYECLDSFHKKEQLKDFNYHCGECNSTQDAIKQLGIHKLPSVLVLQLKRFEHLLNGSNRKLDDFIEFPTYLNMKNYCSTKEKDKHSENGKVPDIIYELIGIVSHKGTVNEGHYIAFCKISGGQWFKFNDSMVSSISQEEVLKEQAYLLFYTIRQVN | soluble
MGSDKIHHHHHHMQKLTLKEVQAKAVEILVYIDNICRSNNLHYTLFYGTLIGVERHKGFIPWDDDIDIVMPRPDYELLIKILKNDSNYQLLSFETRKHFRYPFAKLVDPNTVAHSKQYFGGEDKDLGVFVDIFPIDGIPDTQKERNELRKITEQYRLNLMDTLGLSYARSFHLSKALIKLITRYPNHFKVKKVGNNQYWRDLYQTEAKKTPFGATKHCGYLEWIHIDWGVFPNEWFLEYEDVEFEGHKFMAIKNRKQFLTLRYGDYMEMPPVEERITHHPYDFYQK | not soluble
